{"source": "patent EP4678184A2", "about": "(CREATE Medicines, Inc., dated 2026)", "binders": {"B1": {"name": "CD5-CAR (anti-CD5 chimeric antigen receptor on electroporated CD14+ monocytes, Example 15) (receptor, not shown: small tags and cut ends)", "chain": "EIQLVQSGGGLVKPGGSVRISCAASGYTFTNYGMNWVRQAPGKGLEWMGWINTHTGEPTYADSFKGRFTFSLDDSKNTAYLQINSLRAEDTAVYFCTRRGYDWYFDVWGQGTTVTVSSGGGGSGGGGSGGGGSDIQMTQSPSSLSASVGDRVTITCRASQDINSYLSWFQQKPGKAPKTLIYRANRLESGVPSRFSGSGSGTDYTLTISSLQYEDFGIYYCQQYDESPWTFGGGTKLEIK", "notes": "also called CD5-CAR monocytes"}}, "molecular_target": "T1, Alexa488 conjugated human CD5 protein (human, UniProt P06127 25-372, limits assumed, Alexa488 conjugated (site not stated))", "T1 sequence (looked up)": "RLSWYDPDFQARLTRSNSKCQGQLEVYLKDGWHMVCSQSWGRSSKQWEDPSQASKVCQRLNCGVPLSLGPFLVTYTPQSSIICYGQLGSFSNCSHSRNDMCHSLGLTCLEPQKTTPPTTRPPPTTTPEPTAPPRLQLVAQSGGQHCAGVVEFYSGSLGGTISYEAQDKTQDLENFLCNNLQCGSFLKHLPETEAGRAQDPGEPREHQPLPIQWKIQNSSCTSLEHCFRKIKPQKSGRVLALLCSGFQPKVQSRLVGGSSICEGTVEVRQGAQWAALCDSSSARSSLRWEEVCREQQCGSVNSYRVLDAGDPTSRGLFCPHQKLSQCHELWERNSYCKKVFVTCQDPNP", "assay": "flow cytometry, labelled soluble CD5 on electroporated CD14+ monocytes, 24, 48 and 72 hours post thaw", "data": [{"binder": "B1", "values": [{"measurement": "binding result", "value": "binds"}]}]}
